In the nanobody polyreactivity screen of Harvey et al. (2022):

Assay: yeast display, Sf9 membrane polyspecificity reagent, FACS + sequencing; frameworks hold sequencing errors
Procedure, shortened: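 Nanobodies came from a synthetic yeast display library in Saccharomyces cerevisiae BJ5465, induced with galactose for 36–48 hours and stained for 1 hour at 4 °C with 10% biotinylated, detergent-solubilized Sf9 membrane reagent. Cells were enriched on streptavidin microbeads and then FACS-sorted, with low and high (top ~1%) gates set on anti-HA fluorescence for expression and streptavidin fluorescence for reagent binding. Each polyreactivity label reflects the gate a clone came from. Genes were amplified by colony PCR, sequenced by MiSeq 2 × 250 and filtered by CDR length.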

Sequence | polyreactivity (PSR sort gate)
QVQLVESGGGLVHAGGSLRLSCAASGIIFSWYAMGWYRQAPGKERELVAAITSDGNTYYADSVKGRFTISRDNAKNTVYLQMNSLKPEDTAVYYCIARTYVRRPLGYWGQGWQVTVSS | high polyreactivity
QVQLVESGGGLVHAGGSLRLSCAASGITFERYAMGWYRQAPGKERELVAAITSSGGSTYYADSVKGRFTISRDNAKNTVYLQMNSLKPEDTAVYYCAARTAYTPRHDYWGQGTEVTVSS | high polyreactivity
QVQLVESGGGLVHAGGSLRLSCAASGITFYDYDMGWYRQAPGKERELVATITSGGDTNYADSVKGRITISRDNAKNTVYLQMNSLKPEDTAVYYCAAGSFFRDSYARIYRWFYYWGQGTQVTVSS | low polyreactivity
QVQLVESGGGLVHAGGSLRLSCAASGRIFAPYAMGWYRQAPGKERELVAAITSRGGSTYYADSVKGRFTISRDTAKNTVYLQMNSLKPEDTAVYYCNADYYGRPYYYWGQGTQVTVSS | high polyreactivity
QVQLVESGGGLVHAGGSLRLSCAASGRIFIANTMGWYRQATGKERELVAAITQRGDSTYYADSVKGRCTISRDNAKNTVDLQMNSLKPEDTAVYYCAARYYLSSYVRYNYWGQGTQVTVSS | high polyreactivity
QVQLVESGGGLVHAGGSLRLSCAASGRIFQHYAMGWYRKAPGKERELVAAISWRGGSTYYADSVKGRFTISRDNAKNTVYLQMNSLIPEDTAVYYCAAGYPGRNPGFDYWGQGNQVTVSS | high polyreactivity
QVQLVESGGGLVHAGGSLRLSCAASGRIFSPYARGWYRQAPGKERELDAAMSGSRGRTYYADSVKGRFTISRDNAKNTEYLLMNRLKPEDTADYYCAAYRAITRANYLDYWGQGTQVTVSS | high polyreactivity
QVQLVESGGGLVHAGGSLRLSCAASGRITTYYTMGRYRHAPGKERELVAAISWSGTSTYYADSVKGRFTISRDNAKNTVYLQMNSLKPEATAVYYCNAGWRYPLDSVTDDYWGQGTQVTVSS | high polyreactivity
QVQLVESGGGLVHAGGSLRLSCAASGRTFAGNVMGWYIQAPGKEREFVAAISLSGGNTYYADSVKGRFTISRDNAKNTVYLQMNSLKPEDTAVYYCAADYEYSGYGYWGQGTQVTVSS | high polyreactivity
QVQLVESGGGLVHAGGSLRLSCAASGRTFHGYAMGWYIQAPGKERELVAAITSSGARTYYADSVKGRFTISRDNAKNTVYLQMNSLKPEDTAVYYCAVNWLRGMDWGQGTQVTVSS | high polyreactivity
QVQLVESGGGLVHAGGSLRLSCAASGRTFLLYAMGWYRQAPGKERELVARITGRGGRTYYADSVKGRFTISRDNAKNTVYLQMNSLKPEDTAVYYCNAKGYQGQWERYDYWGQGTQVTVSS | high polyreactivity
QVQLVESGGGLVHAGGSLRLSCAASGRTFQWNRMVWYRQAPGKERELVATIRRGGSTNYADSVKGRFTISRDNAKNTVYLQMNSLKPEDTAVYYCAADRRYPGGWGFEYNYWGQGTQVTVSS | low polyreactivity
QVQLVESGGGLVHAGGSLRLSCAASGRTFWSYSMGWYRQAPGKEREFVAAISRRGGITYYADSVKGRFTISRDNAKTTVYLQMNSLKPEDTAVFYCAKGALSYYGGQVKYDYWGQGTQVTVSS | high polyreactivity
QVQLVESGGGLVHAGGSLRLSCAASGRTFWYYAMGWYRQAPGKERELVAAITRGGRTNYADSVKGRFTISRDNAKNTVYLQMNSLKPEDTAVYYCAADYRYPAHSYGYWGQGTQVTVSS | high polyreactivity
QVQLVESGGGLVHAGGSLRLSCAASGRTFYAYAMGWYRQAPGKERELVAAISWRGGDTYYADSVKGRFTISRDNAKNTVYLQMNSVKPEVTAVYFCCADVYRYSVYLIRNPMDYWGQGTQVTVSS | low polyreactivity
QVQLVESGGGLVHAGGSLRLSCAASGSIFDYYALGWYRQAPGKERDLVASINSSVTGTYYADTVKGRFTISRDNAKNSVYLQMNSLKPEDTAVYYCAVKVYGRSGGYEYWGQGTQVTVSS | low polyreactivity
QVQLVESGGGLVHAGGSLRLSCAASGSIFVVYTMGWYRQAPGQERELVAAITQNGGSSTYYADSVKGRFTISRDNAKNTVYLQMNSLKPEDTAVYYCNKDILSPVVRIFKYGYDMDYWGQGTQVTVSS | low polyreactivity
QVQLVESGGGLVHAGGSLRLSCAASGSIFYHNPMGWYRQAPGKERELVAAISGRGGSTYYADSVKGRFTISRDNAKHTVYLQMNSLKPEDSAVYYCAADARYQNGGLYYWGQGTHVTVSS | high polyreactivity
QVQLVESGGGLVHAGGSLRLSCAASGSIIDRNAMGWYRQAPGKERELVASITRGGSTNYADSVKGRFTISRDNEKNTVYLQMNSLKPEDTAVYYCADDRVYLGMFRYEYWGQGTQVTVSS | high polyreactivity
QVQLVESGGGLVHAGGSLRLSCAASGSIYGANDMGWYRKATGKERELVAAITRSGTRTYYADSVKGLFTISRDNAKNTVYLQMNSLKPEDTAVYYCAAVLRLSTLTTDFGYWGQGTQVTVSS | high polyreactivity
QVQLVESGGGLVHAGGSLRLSCAASGSNFGYNAMGWYIQAPGKERELVAAITSIGGNTYADSVKGRFTISRDNAKYTVYLQMNSLKPEDTAVYYCAAERNTDPIQVVYEFDYWGQGSQVTVSS | low polyreactivity
